Results reported in paper PMC5417323 (Journal of Molecular Biology, 2017).
Non-standard residues stand in square brackets, D forms with d. Primed or numbered codes have the meaning given here. No end group written: not given here. *: point of attachment. FITC = O=C1OC2(c3ccc(O)cc3Oc3cc(O)ccc32)c2ccc(NC(=S)*)cc21; pY = N[C@@H](Cc1ccc(OP(=O)(O)O)cc1)C(=O)O; FITC′ = not defined here

Columns and labels:
Lck SH2 domain = Lck SH2 domain (UniProt P06239 118-231, biotin on the Avi-tag (yeast binding assay, pull-down)); experiment: fluorescence polarisation
[1] = biological target: the eight SFK SH2 domains; experiment: fluorescence polarisation

Lck SH2 domain, sequence (P06239 118-231): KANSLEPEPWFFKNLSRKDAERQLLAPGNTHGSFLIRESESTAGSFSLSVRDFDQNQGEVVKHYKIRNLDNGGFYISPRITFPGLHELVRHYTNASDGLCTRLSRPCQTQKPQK

| Kd (Lck SH2 domain) [nM] | Kd [1] [nM] | Binder |
| --- | --- | --- |
| 2200 |  | {FITC}-TEGQ[pY]QPQPA [(FITC)-TEGQpYQPQPA] |
|  | 310 to 675 | EPQ[pY]EEIPIYLK-{FITC′} [EPQp…-(FITC)] |
| 955 |  | {FITC}-ADND[pY]IIPLPD [(FITC)-ADNDpYIIPLPD] |
